Assay results published in PMC5263234, “Dynamin-2 Stabilizes the HIV-1 Fusion Pore with a Low Oligomeric State” (Cell Reports, 2017).
Several values for one entry are separate records, joined by “and”; a condition that tells them apart may be missing. Equal values may be shown once.

Key:
[1] = target: the molecule itself; assay: number and brightness analysis with TIRF microscopy
[2] = target: the molecule itself; assay: number and brightness analysis with TIRF microscopy; live TZM-bl cells expressing Dynamin-mCherry, exposed to HIV(JRFL) at MOI 10; 100 frames at 50 ms per frame; brightness calibrated against mCherry alone

B1: dynamin-2 (natural protein, UniProt P50570 1-870, looked up)
chain: MGNRGMEELIPLVNKLQDAFSSIGQSCHLDLPQIAVVGGQSAGKSSVLENFVGRDFLPRGSGIVTRRPLILQLIFSKTEHAEFLHCKSKKFTDFDEVRQEIEAETDRVTGTNKGISPVPINLRVYSPHVLNLTLIDLPGITKVPVGDQPPDIEYQIKDMILQFISRESSLILAVTPANMDLANSDALKLAKEVDPQGLRTIGVITKLDLMDEGTDARDVLENKLLPLRRGYIGVVNRSQKDIEGKKDIRAALAAERKFFLSHPAYRHMADRMGTPHLQKTLNQQLTNHIRESLPALRSKLQSQLLSLEKEVEEYKNFRPDDPTRKTKALLQMVQQFGVDFEKRIEGSGDQVDTLELSGGARINRIFHERFPFELVKMEFDEKDLRREISYAIKNIHGVRTGLFTPDLAFEAIVKKQVVKLKEPCLKCVDLVIQELINTVRQCTSKLSSYPRLREETERIVTTYIREREGRTKDQILLLIDIEQSYINTNHEDFIGFANAQQRSTQLNKKRAIPNQGEILVIRRGWLTINNISLMKGGSKEYWFVLTAESLSWYKDEEEKEKKYMLPLDNLKIRDVEKGFMSNKHVFAIFNTEQRNVYKDLRQIELACDSQEDVDSWKASFLRAGVYPEKDQAENEDGAQENTFSMDPQLERQVETIRNLVDSYVAIINKSIRDLMPKTIMHLMINNTKAFIHHELLAYLYSSADQSSLMEESADQAQRRDDMLRMYHALKEALNIIGDISTSTVSTPVPPPVDDTWLQSASSHSPTPQRRPVSSIHPPGRPPAVRGPTPGPPLIPVPVGAAASFSAPPIPSRPGPQSVFANSDLFPAPPQIPSRPVRIPPGIPPGVPSRRPPAAPSRPTIIRPAEPSLLD
notes: dynamin-2 (DNM2), large GTPase; Each copy carries ONE fluorescent protein; FRET-FLIM used an EGFP-tagged copy together with an mCherry-tagged copy; number and brightness used the mCherry-tagged copy alone; The Addgene dynamin-2 plasmids may encode the rat protein (surmise); also called DNM2; Dyn-GFP; source: TZM-bl cells, transfected (plasmids obtained from Addgene), in live cells
[1]
  stoichiometry N: 8 and 6
[2]
  stoichiometry N: 4
